{"source": "patent US20200024330A1", "experiment_in_all_cases": "cell-based or functional assay", "key": {"[1]": {"molecular_target": "HIV-1 JR-CSF Env Q422A (HIV-1 (isolate JR-CSF)) (UniProt P20871)"}, "[2]": {"molecular_target": "HIV-1 JR-CSF Env S306A (HIV-1 JR-CSF) (UniProt P20871)"}, "[3]": {"molecular_target": "HIV-1 JR-CSF Env I420A (HIV-1 (isolate JR-CSF)) (UniProt P20871)"}, "[4]": {"molecular_target": "HIV-1 JR-CSF Env I423A (HIV-1 (isolate JR-CSF)) (UniProt P20871)"}, "[5]": {"molecular_target": "Env of the clade AG HIV-1 pseudoviruses of the cross-clade 162-pseudovirus panel (n = 10)"}, "[6]": {"molecular_target": "HIV-1 JR-CSF Env K421A (HIV-1 (isolate JR-CSF)) (UniProt P20871)"}, "[7]": {"molecular_target": "HIV-1 JR-CSF Env N355A (HIV-1 isolate JR-CSF) (UniProt P20871)"}, "[8]": {"molecular_target": "HIV-1 JR-CSF Env R304A (HIV-1 JR-CSF) (UniProt P20871)"}, "[9]": {"molecular_target": "HIV-1 JR-CSF Env T319A (HIV-1 isolate JR-CSF) (UniProt P20871)"}, "[10]": {"molecular_target": "HIV-1 JR-CSF Env T320A (HIV-1 isolate JR-CSF) (UniProt P20871)"}, "[11]": {"molecular_target": "HIV-1 JR-CSF Env N392Q (HIV-1 (isolate JR-CSF)) (UniProt P20871)"}, "[12]": {"molecular_target": "HIV-1 Env of isolate MGRM-C-026 (HIV-1)"}, "[13]": {"molecular_target": "HIV-1 Env of isolate JR-CSF (HIV-1) (UniProt P20871)"}, "[14]": {"molecular_target": "HIV-1 JR-CSF Env I323A (HIV-1 isolate JR-CSF) (UniProt P20871)"}, "[15]": {"molecular_target": "HIV-1 JR-CSF Env N396A (HIV-1 (isolate JR-CSF)) (UniProt P20871)"}, "[16]": {"molecular_target": "HIV-1 JR-CSF Env W395A (HIV-1 (isolate JR-CSF)) (UniProt P20871)"}, "[17]": {"molecular_target": "HIV-1 JR-CSF Env H330A (HIV-1 isolate JR-CSF) (UniProt P20871)"}, "[18]": {"molecular_target": "HIV-1 JR-CSF Env L416A (HIV-1 (isolate JR-CSF)) (UniProt P20871)"}, "[19]": {"molecular_target": "HIV-1 Env of isolate 92TH021 (HIV-1)"}, "[20]": {"molecular_target": "Env of the clade B HIV-1 pseudoviruses of the cross-clade 162-pseudovirus panel (n = 31)"}, "[21]": {"molecular_target": "HIV-1 JR-CSF Env I326A (HIV-1 isolate JR-CSF) (UniProt P20871)"}, "[22]": {"molecular_target": "Env of all HIV-1 pseudoviruses of the cross-clade 162-pseudovirus panel (n = 162)"}, "[23]": {"molecular_target": "HIV-1 JR-CSF Env N301A (HIV-1 JR-CSF) (UniProt P20871)"}, "[24]": {"molecular_target": "HIV-1 JR-CSF Env I307A (HIV-1 JR-CSF) (UniProt P20871)"}, "[25]": {"molecular_target": "HIV-1 JR-CSF Env N262A (HIV-1 JR-CSF) (UniProt P20871)"}, "[26]": {"molecular_target": "HIV-1 JR-CSF Env R350A (HIV-1 isolate JR-CSF) (UniProt P20871)"}, "[27]": {"molecular_target": "Env of the clade F HIV-1 pseudoviruses of the cross-clade 162-pseudovirus panel (n = 15)"}, "[28]": {"molecular_target": "HIV-1 JR-CSF Env S199A (HIV-1 JR-CSF) (UniProt P20871)"}, "[29]": {"molecular_target": "HIV-1 JR-CSF Env T413A (HIV-1 (isolate JR-CSF)) (UniProt P20871)"}, "[30]": {"molecular_target": "HIV-1 JR-CSF Env S393A (HIV-1 (isolate JR-CSF)) (UniProt P20871)"}, "[31]": {"molecular_target": "HIV-1 JR-CSF Env F210A (HIV-1 JR-CSF) (UniProt P20871)"}}, "data": [{"binder": "PGT-128 (antibody, V domains shown) VH: QPQLQESGPTLVEASETLSLTCAVSGDSTAACNSFWGWVRQPPGKGLEWVGSLSHCASYWNRGWTYHNPSLKSRLTLALDTPKNLVFLKLNSVTAADTATYYCARFGGEVLRYTDWPKPAWVDLWGRGTLVTVSS VL: QSALTQPPSASGSPGQSITISCTGTSNNFVSWYQQHAGKAPKLVIYDVNKRPSGVPDRFSGSKSGNTASLTVSGLQTDDEAVYYCGSLVGNWDVIFGGGTKLTVL", "values": [{"measurement": "Fold IC50 increase relative to wild-type", "setting": "[1]", "result": 0.2, "unit": "fold"}, {"measurement": "Fold IC50 increase relative to wild-type", "setting": "[2]", "result": 1.1, "unit": "fold"}, {"measurement": "Fold IC50 increase relative to wild-type", "setting": "[3]", "result": 0.8, "unit": "fold"}, {"measurement": "Fold IC50 increase relative to wild-type", "setting": "[4]", "result": 2.6, "unit": "fold"}, {"measurement": "Median IC50 against viruses neutralized with an IC50 <50 µg/ml", "setting": "[5]", "result": 0.67, "unit": "µg/mL"}, {"measurement": "Fold IC50 increase relative to wild-type", "setting": "[6]", "result": 2, "unit": "fold"}, {"measurement": "Fold IC50 increase relative to wild-type", "setting": "[7]", "result": 0.7, "unit": "fold"}, {"measurement": "Fold IC50 increase relative to wild-type", "setting": "[8]", "result": 0.7, "unit": "fold"}, {"measurement": "Fold IC50 increase relative to wild-type", "setting": "[9]", "result": 0.5, "unit": "fold"}, {"measurement": "Fold IC50 increase relative to wild-type", "setting": "[10]", "result": 1, "unit": "fold"}, {"measurement": "Fold IC50 increase relative to wild-type", "setting": "[11]", "result": 0.9, "unit": "fold"}, {"measurement": "Polyclonal Transfectant Neutralization Index (well 5114 A19)", "setting": "[12]", "result": 32.2}, {"measurement": "Primary Neutralization Index (B cell culture well 5114 A19)", "setting": "[12]", "result": 17.1}, {"measurement": "Polyclonal Transfectant Neutralization Index (well 5114 A19)", "setting": "[13]", "result": 136}, {"measurement": "Primary Neutralization Index (B cell culture well 5114 A19)", "setting": "[13]", "result": 77.5}, {"measurement": "Fold IC50 increase relative to wild-type", "setting": "[14]", "result": 3, "unit": "fold"}, {"measurement": "Fold IC50 increase relative to wild-type", "setting": "[15]", "result": 0.9, "unit": "fold"}, {"measurement": "Fold IC50 increase relative to wild-type", "setting": "[16]", "result": 0.8, "unit": "fold"}, {"measurement": "Fold IC50 increase relative to wild-type", "setting": "[17]", "result": 0.3, "unit": "fold"}, {"measurement": "Fold IC50 increase relative to wild-type", "setting": "[18]", "result": 1.1, "unit": "fold"}, {"measurement": "Polyclonal Transfectant Neutralization Index (well 5114 A19)", "setting": "[19]", "result": 10}, {"measurement": "Primary Neutralization Index (B cell culture well 5114 A19)", "setting": "[19]", "result": 6.6}, {"measurement": "Median IC50 against viruses neutralized with an IC50 <50 µg/ml", "setting": "[20]", "result": 0.01, "unit": "µg/mL"}, {"measurement": "Fold IC50 increase relative to wild-type", "setting": "[21]", "result": 1.6, "unit": "fold"}, {"measurement": "Median IC50 against viruses neutralized with an IC50 <50 µg/ml", "setting": "[22]", "result": 0.07, "unit": "µg/mL"}, {"measurement": "Fold IC50 increase relative to wild-type", "setting": "[23]", "result": 10.7, "unit": "fold"}, {"measurement": "Fold IC50 increase relative to wild-type", "setting": "[24]", "result": 3.7, "unit": "fold"}, {"measurement": "Fold IC50 increase relative to wild-type", "setting": "[25]", "result": 1.6, "unit": "fold"}, {"measurement": "Fold IC50 increase relative to wild-type", "setting": "[26]", "result": 1, "unit": "fold"}, {"measurement": "Median IC50 against viruses neutralized with an IC50 <50 µg/ml", "setting": "[27]", "result": 0.52, "unit": "µg/mL"}, {"measurement": "Fold IC50 increase relative to wild-type", "setting": "[28]", "result": 1, "unit": "fold"}, {"measurement": "Fold IC50 increase relative to wild-type", "setting": "[29]", "result": 1, "unit": "fold"}, {"measurement": "Fold IC50 increase relative to wild-type", "setting": "[30]", "result": 1.4, "unit": "fold"}, {"measurement": "Fold IC50 increase relative to wild-type", "setting": "[31]", "result": 0.8, "unit": "fold"}]}]}
